T1: Rb1 tumor suppressor protein (human, UniProt P06400 2-928)
T1 construct: Native protein from K562 lysate; also called pRb1; hypophosphorylated form of Rb1
T1 sequence (looked up): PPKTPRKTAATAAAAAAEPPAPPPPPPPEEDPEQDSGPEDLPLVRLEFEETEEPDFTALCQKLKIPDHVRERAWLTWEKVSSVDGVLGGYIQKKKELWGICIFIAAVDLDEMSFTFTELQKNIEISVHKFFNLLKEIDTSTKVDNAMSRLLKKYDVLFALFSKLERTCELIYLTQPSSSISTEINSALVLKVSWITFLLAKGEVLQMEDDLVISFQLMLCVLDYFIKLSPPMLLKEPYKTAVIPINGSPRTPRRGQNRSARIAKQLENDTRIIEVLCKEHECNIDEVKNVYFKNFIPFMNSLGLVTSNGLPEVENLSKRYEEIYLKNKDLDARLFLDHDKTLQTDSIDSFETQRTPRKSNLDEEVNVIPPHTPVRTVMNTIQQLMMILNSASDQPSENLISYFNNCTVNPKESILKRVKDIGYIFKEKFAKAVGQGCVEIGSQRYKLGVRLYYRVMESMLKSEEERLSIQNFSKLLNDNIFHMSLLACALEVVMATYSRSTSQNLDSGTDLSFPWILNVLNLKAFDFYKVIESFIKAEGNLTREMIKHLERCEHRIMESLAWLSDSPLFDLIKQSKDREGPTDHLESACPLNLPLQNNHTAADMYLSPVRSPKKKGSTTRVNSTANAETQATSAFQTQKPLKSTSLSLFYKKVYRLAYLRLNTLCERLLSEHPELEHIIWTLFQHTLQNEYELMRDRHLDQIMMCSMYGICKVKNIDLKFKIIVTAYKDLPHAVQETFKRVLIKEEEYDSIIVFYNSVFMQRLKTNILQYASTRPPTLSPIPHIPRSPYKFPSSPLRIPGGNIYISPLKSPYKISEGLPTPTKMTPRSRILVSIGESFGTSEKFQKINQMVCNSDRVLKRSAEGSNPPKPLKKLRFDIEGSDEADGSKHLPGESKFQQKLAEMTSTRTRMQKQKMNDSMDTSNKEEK

B1: GST-P2P (918-1095) fusion protein (other, not shown: a dimerising Fc or GST)
chain: RPRSLRKINYLIAREKNEREKRKKSVDKDFESSSMKISKVEGTEIVKPSPKRKMEGDVEKLERTPEKDKIASSTTPAKKIKLNRETGKKIGNAENASTTKEPSEKLESTSSKIKQEKVKGKAKRKVAGSEGSSSTLVDYTSTSSTGGSPVRKSEEKTDTKRTVIKTMEEYNNDNTAPA
B2: GST-P2P (494-688) fusion protein (other, not shown: a dimerising Fc or GST)
chain: AQHIHALTLSPSAAHTLDLLHDHPHPPEEAEARSAMIVHMPDLMDIAHARSRSPPYRRYRSRSRSPPEFRGQSPTKRNVPREEKEREYFNRYREVPPPYDIKAYYGRSVDFRDPFEKERYREWERKYREWYEKYYKGYAVGAQPRPSANREDFSPERLLPLNIRNSPFTRGRREDYAAGQSHRNRNLGGNYPEKL
notes: also called GST-P2P (484-688)
B3: GST-P2P (1-332) fusion protein (other, not shown: a dimerising Fc or GST)
chain: MMEVKDPNMKGAMLTNTGKYAIPTIDAEAYAIGKKEKPPFLPEEPSSSSEEDDPIPAELLCLICKDIMTDAVVIPCCGNSSCDECIRTTLLESDKHTCPTCHQNDVSPDALIANKFLRQAVNNFKNETGYTKRLRKQLPPFLFLVPPPRPLSQRNLQPRSRSPILRQQDPVVFRYTVSPTCSDTKTAGSCSDSGTLSRLPAPSISSLTSNQSSLAPPVSGNPSSAPAPVPDITATVSISVHSEKSDGPFRDSDNKLLPAAALTSEHSKGASSIAITALMEEKGVPGTSPWNSIFVGQSLLHGQLIPTTGPVRINAARPGGGRPGWEHSNKLG

target: T1, Rb1 tumor suppressor protein; assay: GST pull-down from K562 lysate, Western blot with anti-Rb1
Source text: As precipitation controls, aliquots of the K562 lysate were immunoprecipitated with anti-Rb1 antibody IF8 or normal rabbit sera. Bound proteins were separated by electrophoresis in a 7% SDS-polyacrylamide gel and transferred to a nitrocellulose membrane. An aliquot of the K-562 crude lysate was included as a positive control for Western analysis. Proteins were visualized by probing the blot with anti-Rb1 antibodies IF-8 or C15. […] Bound proteins were separated by electrophoresis in a 7% SDS-polyacrylamide gel and transferred to a nitrocellulose membrane. Proteins were visualized by probing the blot with anti-Rb1 antibodies IF8 or C15.
Glutathione S-transferase (GST)-P2P fusion proteins were expressed and recovered on glutathione-sepharose beads as described above. Whole-cell lysates of K562 cells (1 ×10^7 cells/sample) were rocked with the beads for 1 hour at 4° C. and then washed five times with NETN buffer. The beads were then boiled in 1× SDS loading buffer and the proteins separated on SDS-polyacrylamide gels and transferred to nitrocellulose membranes. Competition experiments were performed by adding an excess of the 6X-His E1a fusion protein to the cellular lysates prior to the addition of the GST-P2P fusion proteins. The Rb1 protein was visualized by immunoblotting using anti-Rb1 antibodies IF8 or C15 (Santa Cruz Biotechnology, Santa Cruz, Calif.). These antibodies were also used to immunoprecipitate native Rb1 from the cellular lysates to serve as a positive control following the manufacturers' protocol.

Binding result, no binding:
B1, B2, B3
